According to patent US20250043022A1 (JIANGSU HENGRUI PHARMACEUTICALS, published 2025):

How the values were obtained:
[1] = molecular target: T1, human PSMA on cells (Cho-hPSMA, CHO-K1 cells overexpressing full-length human PSMA) (human, UniProt Q04609 1-750); assay: hybridoma screening on cells
T1 construct: whole, on cells; also called cell surface PSMA; PSMA-expressing Lncap cells

[2] = molecular target: T1, human PSMA on cells (Cho-hPSMA, CHO-K1 …); assay: cell ELISA, Cho-hPSMA; antibody at 25 nM
Description: (§1) Experiment 2: Cells were cultured and inoculated onto a cell plate using the same method as in Experiment 1. The antibodies were serially diluted, and the antibody solutions were added to the cell plate at 100 μL/well. The plate was incubated at 4° C. for 1 h and then washed. An HRP-Goat Anti-human IgG (H+L) secondary antibody dilution (1:8000) was added to the cell plate at 100 μL/well, and the plate was incubated at 4° C. for 1 h and then washed by centrifugation. After color development with TMB, the reaction was stopped with 0.1 M sulfuric acid, and OD450 values were measured.
(§2) Experiment 4: The binding activity of bispecific antibodies was measured using the method of experiment 2.

[3] = molecular target: T1, human PSMA on cells (Cho-hPSMA, CHO-K1 …); assay: cell ELISA, Cho-hPSMA; antibody at 1.5625 nM
Description: as §1, §2

[4] = molecular target: T1, human PSMA on cells (Cho-hPSMA, CHO-K1 …); assay: cell ELISA, Cho-hPSMA; antibody at 6.25 nM
Description: as §1, §2

[5] = molecular target: T1, human PSMA on cells (Cho-hPSMA, CHO-K1 …); assay: flow cytometry, Cho-hPSMA; antibody at 4 nM
Description: (§3) Experiment 1: Cho-hPSMA was cultured in F12 medium with 10% FBS. The medium to which cells were inoculated was incubated in a 37° C., 5% CO₂ incubator for 2 days, and cells were added to a cell plate at 1×10⁵ cells/well and washed by centrifugation. Antibodies were serially diluted, and the antibody solutions were added to the cell plate at 100 μL/well. The plate was incubated at 4° C. for 1 h and then washed. An AF488-Goat Anti-human IgG Fc fluorescent secondary antibody dilution (1:400) was added to the cell plate at 100 μL/well, and the plate was incubated at 4° C. for 1 h and then washed. PBS was added to the cell plate at 100 μL/well before plate reading.
(§4) Experiment 3: The binding activity of bispecific antibodies was measured using the method of experiment 1.

[6] = molecular target: T1, human PSMA on cells (Cho-hPSMA, CHO-K1 …); assay: flow cytometry, Cho-hPSMA; antibody at 0.8 nM
Description: as §3, §4

[7] = molecular target: T1, human PSMA on cells (Cho-hPSMA, CHO-K1 …); assay: flow cytometry, Cho-hPSMA; antibody at 100 nM
Description: as §3, §4

[8] = molecular target: T1, human PSMA on cells (Cho-hPSMA, CHO-K1 …); assay: cell-based or functional assay
[9] = molecular target: T1, human PSMA on cells (Cho-hPSMA, CHO-K1 …); assay: flow cytometry, Cho-hPSMA; antibody at 20 nM
Description: as §3, §4

T1 sequence (Q04609 whole entry): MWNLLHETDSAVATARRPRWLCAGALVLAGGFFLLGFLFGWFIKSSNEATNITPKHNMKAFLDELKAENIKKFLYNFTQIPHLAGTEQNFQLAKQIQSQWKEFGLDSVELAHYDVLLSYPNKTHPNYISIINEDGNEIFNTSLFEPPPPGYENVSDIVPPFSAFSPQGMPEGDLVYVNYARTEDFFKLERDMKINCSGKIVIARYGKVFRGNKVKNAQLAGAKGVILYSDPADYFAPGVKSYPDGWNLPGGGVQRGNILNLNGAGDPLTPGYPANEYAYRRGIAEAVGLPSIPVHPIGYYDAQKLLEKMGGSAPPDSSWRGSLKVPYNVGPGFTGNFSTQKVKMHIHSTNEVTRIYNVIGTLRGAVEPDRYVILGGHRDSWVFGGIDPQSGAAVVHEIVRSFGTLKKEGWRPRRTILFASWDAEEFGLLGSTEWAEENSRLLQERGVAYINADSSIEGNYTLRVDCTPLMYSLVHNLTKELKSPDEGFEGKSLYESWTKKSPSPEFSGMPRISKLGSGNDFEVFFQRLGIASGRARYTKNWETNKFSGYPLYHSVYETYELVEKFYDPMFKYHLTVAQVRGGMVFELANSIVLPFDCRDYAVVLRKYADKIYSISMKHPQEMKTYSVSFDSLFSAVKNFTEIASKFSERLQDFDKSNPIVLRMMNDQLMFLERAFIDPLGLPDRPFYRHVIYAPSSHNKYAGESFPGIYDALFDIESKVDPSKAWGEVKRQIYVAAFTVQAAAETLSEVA

B1: murine antibody 19 (antibody, V domains shown)
VH: EVKLVESEGGLVQPGSSMKLSCTASGFTFSDYYMAWVRQVPERGLEWVANINYDGSSTYYLDSLKSRFIISRDNAKNILYLQMSSLKSEDTATYYCARGGDYWDAMDYWGQGTSVTVSS
VL: DIQMTQTTSSLSASLGDRVTISCRASQDISKYLNWYQQKPDGTVKLLIYYTSSLHSGVPSRFSGSGSGTDYSLTISNLEQEDIATYFCQQGNRLPRTFGGGTKLEIK
notes: murine hybridoma antibody
Q: Does B1 bind [1]?
A: Result: binds

B2: murine antibody 15 (antibody, V domains shown)
VH: EFQLQQSGPELVKPGASVKISCKASGYSFTDHNMNWVKQSNGKSLEWIGLINPNYGTADYNQKFKGKATLTVDQSSTTAFMQFTSLTSEDSAVYYCARGSSLFAYWGQGTLVTVSA
VL: DIVMTQSHKFMSTSVGDRVNITCKASQGVDTAVAWYQQKPGQSPKLLIYWASTRHTGVPDRFTGSGSGTDFTLTISNVQSEDLADYFCQQYSRYPLTFGAGTKLELK
notes: murine hybridoma antibody
Q: Does B2 bind [1]?
A: Result: binds

B3: 27-F4 (bispecific antibody)
heavy: not shown
light: QIVLTQSPDFQSVTPKEKVTIQCSASSSVSYMYWYQQKPDQSPKPWIYRTSNLASGVPSRFSGSGSGTDYTLTINSLEAEDAATYYCQQYHSYPLTFGQGTKLEIKRTVAAPSVFIFPPSDEQLKSGTASVVCLLNNFYPREAKVQWKVDNALQSGNSQESVTEQDSKDSTYSLSSTLTLSKADYEKHKVYACEVTHQGLSSPVTKSFNRGEC
notes: PSMA x CD3, Format 4
Q: With B3 as the binder, how does the absorbance [2] read?
A: The absorbance was 1.05 OD450.

Q: What about the absorbance [3] of the same binder?
A: Its absorbance is 0.419 OD450.

Q: And the absorbance [4]?
A: Its absorbance is 0.732 OD450.

B4: murine antibody 50 (antibody, V domains shown)
VH: QVQLQQSGAELARPGASVKLSCKASGFTFTNYGISWVKQRTGQGLEWIGEIYPRSGNTYYNTNFKGEATLTADKSSSTAFMELRSLTSEDSAVYFCARNPFTTVVEGFAFWGQGTLVTVSA
VL: DVFMTQSPLSLPVSLGDQASISCRSSQSILHSNGNTYLEWYLQKPGQSPKLLIYRVSNRFSGVPDRFSGSGSGTDFTLKISRVEAEDLGVYYCFQGLHVPPTFGAGTKLELK
notes: murine hybridoma antibody
Q: Does B4 bind [1]?
A: Result: binds

B5: murine antibody 71 (antibody, V domains shown)
VH: QVQLVETGGGLVRPGNSLKLSCVTSGFTFSNYRMHWLRQPPGKRLEWIAVITVKSDNYGSSYAESVKGRFAISRDDSKSSVYLEMNRLREEDTATYFCSRELGQVLVFWGQGTLVTVSA
VL: DVVVTQTPLSLPVSLGDQASISCRSSQSLVHSYGNTYLHWYLQKPGQSPKLLIYKVSNRFSGVPDRFSGSGSGTDFTLKISRVEAEDLGVYFCSQTTHVPWTFGGGTKLEIK
notes: murine hybridoma antibody
Q: Does B5 bind [1]?
A: Result: binds

B6: 46-F4 (bispecific antibody)
heavy: not shown
light: DIQMTQSPSSLSASVGDRVTITCKASQSVGTAVAWYQQKPGKAPKLLIYSASSRYTGVPSRFSGSGSGTDFTLTISSLQPEDFADYFCHQYSSYPLTFGGGTKVEIKRTVAAPSVFIFPPSDEQLKSGTASVVCLLNNFYPREAKVQWKVDNALQSGNSQESVTEQDSKDSTYSLSSTLTLSKADYEKHKVYACEVTHQGLSSPVTKSFNRGEC
notes: PSMA x CD3, Format 4
Q: B6 was tested. Which fluorescence intensity [5] did it give?
A: Its fluorescence intensity is 18700.

Q: What about the fluorescence intensity [6] of the same binder?
A: Its fluorescence intensity is 9490.

Q: And the fluorescence intensity [7]?
A: The fluorescence intensity was 21300.

Q: And the “cytotoxic activity against Lncap, EC50” value [8]?
A: The value was 2.85 pM.

Q: What about the “cytotoxic activity against Lncap, Maximum lysis rate %” value [8] of the same binder?
A: Its value is 63.5%.

Q: And the fluorescence intensity [9]?
A: The fluorescence intensity was 20800.

B7: 46-F2 (bispecific antibody)
heavy 1: not shown
light 1: DIQMTQSPSSLSASVGDRVTITCKASQSVGTAVAWYQQKPGKAPKLLIYSASSRYTGVPSRFSGSGSGTDFTLTISSLQPEDFADYFCHQYSSYPLTFGGGTKVEIKRTVAAPSVFIFPPSDEQLKSGTASVVCLLNNFYPREAKVQWKVDNALQSGNSQESVTEQDSKDSTYSLSSTLTLSKADYEKHKVYACEVTHQGLSSPVTKSFNRGEC
heavy 2: not shown
light 2: not shown
notes: PSMA x CD3, Format 2
Q: How did the fluorescence intensity [5] turn out when B7 was run?
A: The fluorescence intensity was 19400.

Q: And the fluorescence intensity [6]?
A: The fluorescence intensity was 8330.

Q: What about the fluorescence intensity [7] of the same binder?
A: The fluorescence intensity was 23000.

Q: And the fluorescence intensity [9]?
A: Its fluorescence intensity is 23100.

B8: 46-F1 (bispecific antibody)
heavy 1: not shown
light 1: DIQMTQSPSSLSASVGDRVTITCKASQSVGTAVAWYQQKPGKAPKLLIYSASSRYTGVPSRFSGSGSGTDFTLTISSLQPEDFADYFCHQYSSYPLTFGGGTKVEIKRTVAAPSVFIFPPSDEQLKSGTASVVCLLNNFYPREAKVQWKVDNALQSGNSQESVTEQDSKDSTYSLSSTLTLSKADYEKHKVYACEVTHQGLSSPVTKSFNRGEC
heavy 2: not shown
light 2: not shown
notes: PSMA x CD3, Format 1
Q: How did the fluorescence intensity [5] turn out when B8 was run?
A: The fluorescence intensity was 12300.

Q: And the fluorescence intensity [6]?
A: Its fluorescence intensity is 3930.

Q: What about the fluorescence intensity [7] of the same binder?
A: The fluorescence intensity was 31600.

Q: And the fluorescence intensity [9]?
A: The fluorescence intensity was 28600.

B9: murine antibody 43 (antibody, V domains shown)
VH: EVKFEESGGGLVQPGGSMKLSCVASGFTFSNYWMNWLRQSPEKGLEWVAQVRLKSDNYATHYAESVKGRFTISRDDSKSSAYLQMNNLRAEDTGIYYCSENYYGPAGPFDFWGQGTTLTVSS
VL: DIVMTQSQKFMSTTVGDRVSITCKASQNVHTSVAWYQQKPGQSPKLLIYSASNRYSGVPDRFTGSGSGTDFTLTINNMQSEDLADYFCQQYSSYPLTFGVGTKLELK
notes: murine hybridoma antibody
Q: Does B9 bind [1]?
A: Result: binds

B10: murine antibody 46 (antibody, V domains shown)
VH: EVQLVESGGDLVKPGGSLKLSCAASGFTFSNYGMSWVRQTPDKRIKWVATIGSGGGYTYYSDSVKGRFTISRDNAKNTLYLQMSSLKSEDTAIYYCVRHPQIGYWGQGTLVTVSA
VL: DIVMTQSQKFMSTTVGDRVTITCKASQSVGTAVAWYQQKPGQSPKLLIYSASSRYTGVPDRFTGSGSGTDFTLTITNMQSEDLADYFCHQYSSYPLTFGGGTKLEIK
notes: murine hybridoma antibody
Q: Does B10 bind [1]?
A: Result: binds

B11: 43-F4 (bispecific antibody)
heavy: not shown
light: DIQMTQSPSSLSASVGDRVTITCKASQNVHTSVAWYQQKPGKSPKLLIYSASNRYSGVPSRFSGSGSGTDFTLTISSLQPEDVATYYCQQYSSYPLTFGQGTKLEIKRTVAAPSVFIFPPSDEQLKSGTASVVCLLNNFYPREAKVQWKVDNALQSGNSQESVTEQDSKDSTYSLSSTLTLSKADYEKHKVYACEVTHQGLSSPVTKSFNRGEC
notes: PSMA x CD3, Format 4
Q: Which absorbance [2] does the source give for B11 here?
A: The absorbance was 1.04 OD450.

Q: What about the absorbance [3] of the same binder?
A: The absorbance was 0.254 OD450.

Q: What about the absorbance [4] of the same binder?
A: Its absorbance is 0.527 OD450.

Q: And the “cytotoxic activity against Lncap, EC50” value [8]?
A: The value was 6.21 pM.

Q: And the “cytotoxic activity against Lncap, Maximum lysis rate %” value [8]?
A: The value was 48%.

B12: 43-F3 (bispecific antibody)
heavy: not shown
light 1: DIQMTQSPSSLSASVGDRVTITCKASQNVHTSVAWYQQKPGKSPKLLIYSASNRYSGVPSRFSGSGSGTDFTLTISSLQPEDVATYYCQQYSSYPLTFGQGTKLEIKRTVAAPSVFIFPPSDEQLKSGTASVVCLLNNFYPREAKVQWKVDNALQSGNSQESVTEQDSKDSTYSLSSTLTLSKADYEKHKVYACEVTHQGLSSPVTKSFNRGEC
light 2: not shown
notes: PSMA x CD3, Format 3
Q: With B12 as the binder, how does the absorbance [2] read?
A: The absorbance was 0.721 OD450.

Q: And the absorbance [3]?
A: Its absorbance is 0.227 OD450.

Q: What about the absorbance [4] of the same binder?
A: Its absorbance is 0.441 OD450.

Q: What about the “cytotoxic activity against Lncap, EC50” value [8] of the same binder?
A: Its value is 7.39 pM.

Q: What about the “cytotoxic activity against Lncap, Maximum lysis rate %” value [8] of the same binder?
A: The value was 49.5%.

B13: 15-F4 (bispecific antibody)
heavy: not shown
light: DIQMTQSPSSLSASVGDRVTITCKASQGVDTAVAWYQQKPGKSPKLLIYWASTRHTGVPDRFSGSGSGTDFTLTISSLQPEDVATYYCQQYSRYPLTFGQGTKLEIKRTVAAPSVFIFPPSDEQLKSGTASVVCLLNNFYPREAKVQWKVDNALQSGNSQESVTEQDSKDSTYSLSSTLTLSKADYEKHKVYACEVTHQGLSSPVTKSFNRGEC
notes: PSMA x CD3, Format 4
Q: With B13 as the binder, how does the fluorescence intensity [5] read?
A: Its fluorescence intensity is 22000.

Q: And the fluorescence intensity [6]?
A: Its fluorescence intensity is 8280.

Q: What about the fluorescence intensity [7] of the same binder?
A: Its fluorescence intensity is 32200.

Q: What about the “cytotoxic activity against Lncap, EC50” value [8] of the same binder?
A: The value was 9.63 pM.

Q: What about the “cytotoxic activity against Lncap, Maximum lysis rate %” value [8] of the same binder?
A: Its value is 63.2%.

Q: What about the fluorescence intensity [9] of the same binder?
A: The fluorescence intensity was 31400.

B14: 15-F2 (bispecific antibody)
heavy 1: not shown
light 1: DIQMTQSPSSLSASVGDRVTITCKASQGVDTAVAWYQQKPGKSPKLLIYWASTRHTGVPDRFSGSGSGTDFTLTISSLQPEDVATYYCQQYSRYPLTFGQGTKLEIKRTVAAPSVFIFPPSDEQLKSGTASVVCLLNNFYPREAKVQWKVDNALQSGNSQESVTEQDSKDSTYSLSSTLTLSKADYEKHKVYACEVTHQGLSSPVTKSFNRGEC
heavy 2: not shown
light 2: not shown
notes: PSMA x CD3, Format 2
Q: How did the fluorescence intensity [5] turn out when B14 was run?
A: The fluorescence intensity was 27800.

Q: And the fluorescence intensity [6]?
A: The fluorescence intensity was 15000.

Q: And the fluorescence intensity [7]?
A: Its fluorescence intensity is 26900.

Q: What about the fluorescence intensity [9] of the same binder?
A: The fluorescence intensity was 30700.
